Blank lines part the entries; values can stand above or below the binder they belong to.
Columns and labels:
[1] = target: Transcobalamin (TC), B12-bound, as in the TC:TCblR complex (human, UniProt P20062); assay: crystal structure
[2] = target: B12-bound complex of transcobalamin (TC) and its receptor TCblR (Homo sapiens); assay: MST
[3] = target: Transcobalamin receptor TCblR (CD320), crystallization construct, as in the TC:TCblR complex (human, UniProt Q9NPF0); assay: crystal structure
Transcobalamin receptor TCblR (CD320), crystallization construct, as in the TC:TCblR complex, sequence (Q9NPF0 53-171, one chain of several): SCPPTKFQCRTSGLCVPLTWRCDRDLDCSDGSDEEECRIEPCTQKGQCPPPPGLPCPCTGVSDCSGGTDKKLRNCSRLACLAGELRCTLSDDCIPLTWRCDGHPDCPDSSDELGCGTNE

Transcobalamin (TC), B12-bound, as in the TC:TCblR complex, sequence (P20062 19-427, one chain of several): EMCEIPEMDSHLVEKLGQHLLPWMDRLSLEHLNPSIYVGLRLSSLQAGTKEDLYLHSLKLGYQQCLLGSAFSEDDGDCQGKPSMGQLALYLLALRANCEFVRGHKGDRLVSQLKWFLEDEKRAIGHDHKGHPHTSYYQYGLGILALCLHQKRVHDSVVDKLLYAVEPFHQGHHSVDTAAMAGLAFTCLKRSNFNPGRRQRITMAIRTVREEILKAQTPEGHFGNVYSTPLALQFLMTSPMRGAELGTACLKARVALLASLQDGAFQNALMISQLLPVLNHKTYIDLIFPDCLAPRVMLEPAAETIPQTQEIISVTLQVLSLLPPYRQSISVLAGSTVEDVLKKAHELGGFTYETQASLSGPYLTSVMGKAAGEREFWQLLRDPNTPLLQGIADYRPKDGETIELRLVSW
B12-bound complex of transcobalamin (TC) and its receptor TCblR (Homo sapiens), sequence (P20062 19-427 R227Q, chain 1 of 2): as the sequence (P20062 19-427, one chain of several) above, with R209Q counted along it
B12-bound complex of transcobalamin (TC) and its receptor TCblR (Homo sapiens), sequence (Q9NPF0 53-171, chain 2 of 2, further chain): as the sequence (Q9NPF0 53-171, one chain of several) above

binding result [1]: binds
B1: Nanobody TCNB11 (VHH)
VHH: QLQLVESGGGLVQAGGSLRLSCTASGRTGTMGWFRQGPGKEREFVASHKWVAGSTYYADSVKGRFTISRDNAKNTLYLQMNSLKSEDTAVYYCAASSQIFYGATTSIKDFNSWGKGTRVTVSS

Kd [2]: 12.8 nM
binding result [1]: binds
B2: Nanobody TCNB34 (VHH)
VHH: QWQLVESGGGLVQPGGSLRLSCAASGSTFSSYAMGWYRQAPGKECELVAAISRAGGSTNYADSVKGRFTISRDNAKNTVYLQMNSLKPEDTAVYYCNAAAEGETGSNWSLCEEYDYWGKGTRVTVSS

Kd [2]: 5.2 nM
binding result [1]: binds
binding result [3]: binds
B3: Nanobody TCNB4 (VHH)
VHH: QRQLVESGGGLVQPGGSLRLSCAASGFTPGIYDIGWFRQAPGKEREGVSCISSRGSSTNYADSVKGRFIISRDNVKNTVYLQMNSLEPEDTAVYYCAAIYQPSNGCVLRPEYSYWGKGTPVTVSS

Kd [2]: 87.4 nM
binding result [1]: binds
B4: Nanobody TCNB26 (VHH)
VHH: QVQLVESGGGLVQAGESLRLSCAASGRTFAMAWFRQAPGKEREFVAVRGWLGVTTYYADSVKGRFTISRDNAKNTLDLQMNSLKPEDTAVYYCAAGQYSSSLYDRETEYNYWGQGTRVTVSS
